In US10501502B2, “Allophycocyanin alpha-subunit evolved labeling proteins (smURFPs)” (The Regents of the University of California, priority 2016, dated 2019):

Legend:
primary cortical neurons = test: Rat primary neuronal cultures transduced with smURFP T2A mCherry lentivirus; format: cell-based; settings: 15 d after transduction
Text: smURFP-T2A-mCherry (GenBank AY678264), smURFP-T2A-mCardinal, smURFP, and mCardinal (Addgene 51311) were subcloned in a generation-two lentiviral vector with the CMV promoter for constitutive expression. Viruses were produced as described^45. The procedures for extracting cultured neurons from rat pups were approved by the UCSD Institutional Animal Care and Use Committee (IACUC, #503172R) and are consistent with the recommendations of the American Veterinary Medical Association. Primary cortical neurons were dissociated by papain from postnatal day 2 Sprague Dawley rats (n=6) of either sex and combined, plated on poly-D-lysine-coated glass-bottom culture dishes (MatTek, #P35G-0-14-C), and cultured in Neurobasal A medium+1×B27 supplement (Life Technologies)+2 mM GlutaMAX (Life Technologies)+1×penicillin-streptomycin (Fisher Scientific). Prior to fluorescence imaging, 25 μM BV was added for 10 min, removed, and washed with 2×2 ml Hank's Balanced Salt Solution (HBSS, Life Technologies)+2 g/L glucose+20 mM HEPES (pH 7.4), referred to as imaging solution. Fluorescence imaging was performed in vitro 15 d after infection using a Zeiss Axiovert 200M inverted microscope controlled by SlideBook software. FPs were imaged as follows: smURFP and TDsmURFP, EX/EM=628(40)/680(30) nm; and mCherry, EX/EM=580(20)/653(95) nm.

Escherichia coli = test: Fluorescence of FPs expressed in Escherichia coli; format: cell-based
Description: TeAPCα gene (codons optimized for Escherichia coli) was made by GenScript. Mutations were placed by random mutagenesis using GeneMorphII Random Mutagenesis Kit (Agilent Technologies). Screens for mutants that fluoresce with PCB or BV were performed by subcloning into a pBAD vector (Life Technologies) that expressed cyanobacteria Synechocystis HO-1 and Synechocystis PcyA genes for PCB production and Synechocystis HO-1 only for BV production, as previously described^34. Libraries were expressed in TOP 10 Electrocompetent Escherichia coli cells (Life Technologies) with addition of 0.2% arabinose to LB agar plates (FPs were constitutively expressed in Escherichia coli). Fluorescence was imaged on plates using a BioSpectrum AC Imaging System (UVP) with EX/EM=628(40)/690(50) nm for FPs+PCB, EX/EM=685(40)/710LP nm for rounds 4 and 5 FPs+BV, and EX/EM=650(13)/690(50) nm for Cy5-like FPs+BV (rounds 6-12). At round 6, 5-10 of the brightest colonies on each plate were combined in LB+0.2% arabinose, grown ˜18 h, mixture of plasmid DNA was purified, and TOP10 cells were transformed and plated on LB agar plates+0.2% arabinose. Fluorescence was screened on plates (as described above), 10-20 of the brightest colonies were screened in liquid culture fluorescence (FIG. 7a-e), plasmid DNA was purified, and DNA was sequenced. The plasmid DNA of 2-3 of the brightest FPs was chosen for mutagenesis for the subsequent round. When choosing DNA for subsequent mutagenesis rounds, genes with increased and/or novel silent DNA mutations were chosen over other DNA that had the same DNA and/or protein sequence of the previous round. Site-specific mutagenesis was performed using QuikChange Lightning Mutagenesis Kit (Agilent Technologies) to create smURFP (C4S mutation) and smURFP C52S.

B1: smURFP: small ultra-red fluorescent protein, SEQ ID NO: 13, homodimer, covalently attaches biliverdin (protein)
chain: MKTSEQRVNIATLLTENKKKIVDKASQDLWRRHPDLIAPGGIAFSQRDRALCLRDYGWFLHLITFCLLAGDKGPIESIGLISIREMYNSLGVPVPAMMESIRCLKEASLSLLDEEDANETAPYFDYIIKAMS
modifications: homodimer; biliverdin chromophore; smRUFP Variant Polypeptide
lysosomal aggregation in neuronal culture (primary cortical neurons): not seen
fluorescence when expressed in E. coli (qualitative) (Escherichia coli): greater than that of infrared FPs IFP1.4 and iRFP713
fold brighter than R1+PCB (Escherichia coli; expressed in E. coli): ~650 fold
